Laboratory results published in US20260167710A1.

Tests used:
[1] = biological target: human recombinant neonatal receptor (FcRn) (human) (UniProt P55899); experiment: SPR (ProteOn XPR36), antibody captured by protein L, FcRn as analyte, equilibrium fit, pH 6.0, 25 C
[2] = biological target: cynomolgus recombinant neonatal receptor (FcRn) (cynomolgus monkey) (UniProt Q8SPV9); experiment: as above
[3] = biological target: human complement component C1q (human) (UniProt P02745); experiment: SPR (ProteOn XPR36), antibody immobilised by amine coupling, C1q as analyte, equilibrium fit, 25 C
Sequence of human complement component C1q (human) (P02745 23-245 limits assumed, chain 1 of 3): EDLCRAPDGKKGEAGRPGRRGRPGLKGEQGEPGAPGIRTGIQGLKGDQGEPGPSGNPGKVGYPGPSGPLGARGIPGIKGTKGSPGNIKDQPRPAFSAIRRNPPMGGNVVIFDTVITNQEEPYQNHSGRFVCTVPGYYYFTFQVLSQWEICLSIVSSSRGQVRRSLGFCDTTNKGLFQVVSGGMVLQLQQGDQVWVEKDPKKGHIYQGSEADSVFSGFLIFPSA
Sequence of human complement component C1q (human) (P02746 28-253 limits assumed, chain 2 of 3, further chain): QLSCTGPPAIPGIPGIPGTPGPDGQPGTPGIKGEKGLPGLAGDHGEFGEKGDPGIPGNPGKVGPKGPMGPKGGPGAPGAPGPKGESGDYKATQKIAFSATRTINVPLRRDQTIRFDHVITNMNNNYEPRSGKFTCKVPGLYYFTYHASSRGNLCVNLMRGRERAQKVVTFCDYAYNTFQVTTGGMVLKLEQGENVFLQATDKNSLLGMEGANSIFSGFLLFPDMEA
Sequence of human complement component C1q (human) (P02747 29-245 limits assumed, chain 3 of 3, further chain): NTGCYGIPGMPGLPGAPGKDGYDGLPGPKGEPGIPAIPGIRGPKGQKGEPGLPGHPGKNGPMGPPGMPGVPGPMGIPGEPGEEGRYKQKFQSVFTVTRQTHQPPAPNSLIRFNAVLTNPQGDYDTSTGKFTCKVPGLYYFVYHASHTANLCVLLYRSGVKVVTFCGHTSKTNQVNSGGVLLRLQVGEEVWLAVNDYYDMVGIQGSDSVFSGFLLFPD

hFcgRIIIa (F158) (human) = hFcgRIIIa (F158) (human) (UniProt P08637); experiment: SPR (ProteOn XPR36), anti-poly-histidine IgG surface, antibody as analyte, equilibrium fit, 25 C
Sequence of hFcgRIIIa (F158) (human) (P08637 17-208): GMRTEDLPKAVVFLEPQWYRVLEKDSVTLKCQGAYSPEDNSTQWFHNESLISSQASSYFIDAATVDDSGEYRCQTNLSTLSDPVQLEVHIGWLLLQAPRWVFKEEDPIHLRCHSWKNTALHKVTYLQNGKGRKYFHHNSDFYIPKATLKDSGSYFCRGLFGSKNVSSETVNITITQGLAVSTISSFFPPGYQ

hFcgRIIa (H131) (human) = hFcgRIIa (H131) (human) (UniProt P12318); experiment: as above
Sequence of hFcgRIIa (H131) (human) (P12318 34-217): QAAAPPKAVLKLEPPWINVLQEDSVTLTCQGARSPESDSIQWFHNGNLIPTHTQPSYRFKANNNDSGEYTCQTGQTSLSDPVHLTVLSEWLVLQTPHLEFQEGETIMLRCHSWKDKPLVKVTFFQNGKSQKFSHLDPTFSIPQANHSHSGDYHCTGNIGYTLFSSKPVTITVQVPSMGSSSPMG

[4] = biological target: cFcgRIIIa (cynomolgus monkey); experiment: as above
Sequence of cFcgRIIIa (cynomolgus monkey) (Q8SPW2 17-208): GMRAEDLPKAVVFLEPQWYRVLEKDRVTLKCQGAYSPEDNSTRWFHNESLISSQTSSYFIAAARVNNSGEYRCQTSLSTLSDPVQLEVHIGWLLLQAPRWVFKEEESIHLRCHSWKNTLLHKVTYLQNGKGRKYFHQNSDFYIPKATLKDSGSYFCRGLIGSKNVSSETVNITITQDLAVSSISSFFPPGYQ

hFcgRI (human) = hFcgRI (human) (UniProt P12314); experiment: as above
Sequence of hFcgRI (human) (P12314 16-292): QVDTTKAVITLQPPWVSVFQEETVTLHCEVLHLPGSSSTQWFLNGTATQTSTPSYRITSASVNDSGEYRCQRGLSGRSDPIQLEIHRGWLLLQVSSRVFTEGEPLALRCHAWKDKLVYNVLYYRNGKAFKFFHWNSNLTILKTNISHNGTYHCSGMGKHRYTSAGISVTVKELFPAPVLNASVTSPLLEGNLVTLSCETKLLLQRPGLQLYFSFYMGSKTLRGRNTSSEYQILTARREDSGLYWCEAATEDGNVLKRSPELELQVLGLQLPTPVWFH

[5] = biological target: cFcgRIIa (cynomolgus monkey); experiment: as above
hFcgRIIIa (V158) (human) = hFcgRIIIa (V158) (human) (UniProt P08637); experiment: as above
Sequence of hFcgRIIIa (V158) (human) (P08637 17-208 F176V): as the sequence (P08637 17-208) above, with F160V counted along it

hFcgRIIa (R131) (human) = hFcgRIIa (R131) (human) (UniProt P12318); experiment: as above
Sequence of hFcgRIIa (R131) (human) (P12318 34-217 H167R): as the sequence (P12318 34-217) above, with H134R counted along it

[6] = biological target: cFcgRIIb (cynomolgus monkey); experiment: as above
[7] = biological target: human recombinant neonatal receptor (FcRn) (human) (UniProt P55899); experiment: SPR (ProteOn XPR36), antibody captured by protein L, FcRn as analyte, equilibrium fit, pH 7.4, 25 C
[8] = biological target: cynomolgus recombinant neonatal receptor (FcRn) (cynomolgus monkey) (UniProt Q8SPV9); experiment: as above

Kd [3] [nM]	Kd (hFcgRIIIa (F158) (human)) [nM]	Kd (hFcgRIIa (H131) (human)) [nM]	Kd [4] [nM]	Kd (hFcgRI (human)) [nM]	Kd [5] [nM]	Kd (hFcgRIIIa (V158) (human)) [nM]	Kd (hFcgRIIa (R131) (human)) [nM]	Kd [6] [nM]	Substance	Kd [1] [nM]	Kd [2] [nM]	Kd [7] [nM]	Kd [8] [nM]
680	735	884	141	28.3	2210	232	528	1450	Anti-RSV hIgG1 wildtype control (antibody)	129	146		
									Human IgG1 YTE control (antibody)	30.4	39.3	4330	2760
